Measured values from article PMC4117486, “Investigation of Endoglin Wild-Type and Missense Mutant Protein Heterodimerisation Using Fluorescence Microscopy Based IF, BiFC and FRET Analyses” (PLoS ONE, 2014).

B1: endoglin wild-type, EYFP- or ECFP-tagged (receptor, human, UniProt P17813 26-658, looked up)
chain: ETVHCDLQPVGPERGEVTYTTSQVSKGCVAQAPNAILEVHVLFLEFPTGPSQLELTLQASKQNGTWPREVLLVLSVNSSVFLHLQALGIPLHLAYNSSLVTFQEPPGVNTTELPSFPKTQILEWAAERGPITSAAELNDPQSILLRLGQAQGSLSFCMLEASQDMGRTLEWRPRTPALVRGCHLEGVAGHKEAHILRVLPGHSAGPRTVTVKVELSCAPGDLDAVLILQGPPYVSWLIDANHNMQIWTTGEYSFKIFPEKNIRGFKLPDTPQGLLGEARMLNASIVASFVELPLASIVSLHASSCGGRLQTSPAPIQTTPPKDTCSPELLMSLIQTKCADDAMTLVLKKELVAHLKCTITGLTFWDPSCEAEDRGDKFVLRSAYSSCGMQVSASMISNEAVVNILSSSSPQRKKVHCLNMDSLSFQLGLYLSPHFLQASNTIEPGQQSFVQVRVSPSVSEFLLQLDSCHLDLGPEGGTVELIQGRAAKGNCVSLLSPSPEGDPRFSFLLHFYTVPIPKTGTLSCTVALRPKTGSQDQEVHRTVFMRLNIISPDLSGCTSKGLVLPAVLGITFGAFLIGALLTAALWYIYSHTRSPSKREPVVAVAAPASSESSSTNHSIGSTQSTPCSTSSMA
notes: endoglin (CD105), human, wild type; EYFP-tagged with the ECFP-tagged receptors and with soluble ECFP; ECFP-tagged with the EYFP-tagged mutants; both versions together for the homodimer; also called endoglin^wt-EYFP; endoglin^wt-ECFP; source: CHO cells, transiently co-transfected (50 ng of each construct per 100 000 cells), in living cells; not shown: EYFP (acceptor) or ECFP (donor), C-terminal, …
B2: endoglin S480C, EYFP-tagged (receptor, human, UniProt P17813 26-658, looked up)
chain: ETVHCDLQPVGPERGEVTYTTSQVSKGCVAQAPNAILEVHVLFLEFPTGPSQLELTLQASKQNGTWPREVLLVLSVNSSVFLHLQALGIPLHLAYNSSLVTFQEPPGVNTTELPSFPKTQILEWAAERGPITSAAELNDPQSILLRLGQAQGSLSFCMLEASQDMGRTLEWRPRTPALVRGCHLEGVAGHKEAHILRVLPGHSAGPRTVTVKVELSCAPGDLDAVLILQGPPYVSWLIDANHNMQIWTTGEYSFKIFPEKNIRGFKLPDTPQGLLGEARMLNASIVASFVELPLASIVSLHASSCGGRLQTSPAPIQTTPPKDTCSPELLMSLIQTKCADDAMTLVLKKELVAHLKCTITGLTFWDPSCEAEDRGDKFVLRSAYSSCGMQVSASMISNEAVVNILSSSSPQRKKVHCLNMDSLSFQLGLYLSPHFLQASNTIEPGQQSFVQVRVCPSVSEFLLQLDSCHLDLGPEGGTVELIQGRAAKGNCVSLLSPSPEGDPRFSFLLHFYTVPIPKTGTLSCTVALRPKTGSQDQEVHRTVFMRLNIISPDLSGCTSKGLVLPAVLGITFGAFLIGALLTAALWYIYSHTRSPSKREPVVAVAAPASSESSSTNHSIGSTQSTPCSTSSMA
notes: endoglin (CD105), human, missense mutant S480C (found in a Scottish HHT family); site-directed mutagenesis on pCMV5-endoglin wild type, moved into pEYFP-N1; also called mutant S480C; source: CHO cells, transiently co-transfected (50 ng of each construct per 100 000 cells), in living cells; not shown: EYFP, C-terminal, kept

Key:
Assay in all cases: FRET or BRET; microscopic FRET in living CHO cells, ECFP donor and EYFP acceptor, 50 ng of each construct per 100 000 cells, 24 h after transfection, HEPES buffered ringer solution; FRET index (FI) = FRET efficiency x area with FRET; FI<51 no interaction, 51-99 weak or false positive, >=100 interaction; at least 30 cells per sample
[1] = biological target: B2; conditions: partners not purified
[2] = biological target: B1; conditions: partners not purified
[3] = biological target: the molecule itself

Row | Binder | % of cells clearly FRET-positive (FRET index >=100) [1] | % of cells in FRET index group 2 (FI 51-99, weak or false positive) [1] | mean FRET index of the positive cells [1] | % of cells clearly FRET-positive (FRET index >=100) [2] | % of cells in FRET index group 2 (FI 51-99, weak or false positive) [2] | mean FRET index of the positive cells [2] | % of cells clearly FRET-positive (FRET index >=100) [3] | mean FRET index of the positive cells [3] | % of cells in FRET index group 2 (FI 51-99, weak or false positive) [3]
1 | TβRII, ECFP- or EYFP-tagged (receptor, UniProt P37173 23-567, looked up, TβRII, TGF-β type II receptor; The methods name only the EYFP version; the results use an ECFP-tagged version; also called TβRII-EYFP; TGF-β type-II receptor; source: CHO cells, transiently co-transfected, in living cells) TIPPHVQKSVNNDMIVTDNNGAVKFPQLCKFCDVRFSTCDNQKSCMSNCSITSICEKPQEVCVAVWRKNDENITLETVCHDPKLPYHDFILEDAASPKCIMKEKKKPGETFFMCSCSSDECNDNIIFSEEYNTSNPDLLLVIFQVTGISLLPPLGVAISVIIIFYCYRVNRQQKLSSTWETGKTRKLMEFSEHCAIILEDDRSDISSTCANNINHNTELLPIELDTLVGKGRFAEVYKAKLKQNTSEQFETVAVKIFPYEEYASWKTEKDIFSDINLKHENILQFLTAEERKTELGKQYWLITAFHAKGNLQEYLTRHVISWEDLRKLGSSLARGIAHLHSDHTPCGRPKMPIVHRDLKSSNILVKNDLTCCLCDFGLSLRLDPTLSVDDLANSGQVGTARYMAPEVLESRMNLENVESFKQTDVYSMALVLWEMTSRCNAVGEVKDYEPPFGSKVREHPCVESMKDNVLRDRGRPEIPSFWLNHQGIQMVCETLTECWDHDPEARLTAQCVAERFSELEHLDRLSGRSCSEEKIPEDGSLNTTK | 3% | 10% | 147 FRET index | 62% | 18% | 293 FRET index |  |  | 
2 | B1 |  |  |  |  |  |  | 100% | 373 FRET index | 
3 | endoglin G52V, EYFP-tagged (with an ECFP-tagged copy for the homodimer) (receptor, human, UniProt P17813 26-658, looked up, endoglin (CD105), human, HHT1 missense mutant G52V; also called mutant G52V; source: CHO cells, transiently co-transfected (50 ng of each construct per 100 000 cells), in living cells; not shown: EYFP (acceptor) or ECFP (donor, homodimer only), C-terminal, kept) ETVHCDLQPVGPERGEVTYTTSQVSKVCVAQAPNAILEVHVLFLEFPTGPSQLELTLQASKQNGTWPREVLLVLSVNSSVFLHLQALGIPLHLAYNSSLVTFQEPPGVNTTELPSFPKTQILEWAAERGPITSAAELNDPQSILLRLGQAQGSLSFCMLEASQDMGRTLEWRPRTPALVRGCHLEGVAGHKEAHILRVLPGHSAGPRTVTVKVELSCAPGDLDAVLILQGPPYVSWLIDANHNMQIWTTGEYSFKIFPEKNIRGFKLPDTPQGLLGEARMLNASIVASFVELPLASIVSLHASSCGGRLQTSPAPIQTTPPKDTCSPELLMSLIQTKCADDAMTLVLKKELVAHLKCTITGLTFWDPSCEAEDRGDKFVLRSAYSSCGMQVSASMISNEAVVNILSSSSPQRKKVHCLNMDSLSFQLGLYLSPHFLQASNTIEPGQQSFVQVRVSPSVSEFLLQLDSCHLDLGPEGGTVELIQGRAAKGNCVSLLSPSPEGDPRFSFLLHFYTVPIPKTGTLSCTVALRPKTGSQDQEVHRTVFMRLNIISPDLSGCTSKGLVLPAVLGITFGAFLIGALLTAALWYIYSHTRSPSKREPVVAVAAPASSESSSTNHSIGSTQSTPCSTSSMA |  |  |  | 51% | 27% | 222 FRET index | ≥ 75% | 204 FRET index | 15%
4 | B2 |  |  |  | 65% | 19% | 239 FRET index |  |  | 
5 | ALK5, ECFP- or EYFP-tagged (receptor, UniProt P36897 34-503, looked up, ALK5, TGF-β type I receptor; The methods name only the EYFP version; the results use an ECFP-tagged version; also called ALK5-EYFP; source: CHO cells, transiently co-transfected, in living cells) LQCFCHLCTKDNFTCVTDGLCFVSVTETTDKVIHNSMCIAEIDLIPRDRPFVCAPSSKTGSVTTTYCCNQDHCNKIELPTTVKSSPGLGPVELAAVIAGPVCFVCISLMLMVYICHNRTVIHHRVPNEEDPSLDRPFISEGTTLKDLIYDMTTSGSGSGLPLLVQRTIARTIVLQESIGKGRFGEVWRGKWRGEEVAVKIFSSREERSWFREAEIYQTVMLRHENILGFIAADNKDNGTWTQLWLVSDYHEHGSLFDYLNRYTVTVEGMIKLALSTASGLAHLHMEIVGTQGKPAIAHRDLKSKNILVKKNGTCCIADLGLAVRHDSATDTIDIAPNHRVGTKRYMAPEVLDDSINMKHFESFKRADIYAMGLVFWEIARRCSIGGIHEDYQLPYYDLVPSDPSVEEMRKVVCEQKLRPNIPNRWQSCEALRVMAKIMRECWYANGAARLTALRIKKTLSQLSQQEGIKM | 13% | 30% | 129 FRET index | 36% | 16% | 243 FRET index |  |  | 
